For the assay, the target named is T1, FcγRIIb (human, UniProt P31994 43-217).
T1 construct: extracellular domain; also called 2b; FcgRIIb
T1 sequence (looked up): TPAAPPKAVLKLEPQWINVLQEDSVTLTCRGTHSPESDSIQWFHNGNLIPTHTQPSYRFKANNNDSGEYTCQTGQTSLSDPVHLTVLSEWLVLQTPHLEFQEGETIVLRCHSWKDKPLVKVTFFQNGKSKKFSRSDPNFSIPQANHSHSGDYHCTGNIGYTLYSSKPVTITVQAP
Kind of assay: SPR (Biacore), binding relative to GpH7-B3/GpL16-k0 = 100. How it is done:
Analysis of interaction between objective antibody and the FcγR was carried out using Biacore T100 (GE Healthcare). HBS-EP+ (GE Healthcare) was used as the running buffer, and the measurement temperature was set to 25° C. Chips produced by immobilizing the antigen peptide by the amine coupling method to a Series S Sencor Chip CM5 (GE Healthcare), or alternatively, chips produced by allowing preliminarily biotinylated antigen peptides to interact with and immobilize onto a Series S Sensor Chip SA (certified) (GE Healthcare) were used. Antibodies of interest were captured onto an antigen peptide-immobilized chip, and allowed to interact to each FcγR diluted with running buffer. To regenerate and repeatedly use the chip, the antibodies captured on the chip were washed off by reacting 10 mM glycine-HCl, pH 1.5.
The FcγR-binding activity of each antibody was assessed primarily using as an indicator the FcγR-binding activity and dissociation constant for FcγR.

B1: GpH7-B3 variant L328_13S/GpL16-k0 (antibody, human IgG1, kappa)
heavy: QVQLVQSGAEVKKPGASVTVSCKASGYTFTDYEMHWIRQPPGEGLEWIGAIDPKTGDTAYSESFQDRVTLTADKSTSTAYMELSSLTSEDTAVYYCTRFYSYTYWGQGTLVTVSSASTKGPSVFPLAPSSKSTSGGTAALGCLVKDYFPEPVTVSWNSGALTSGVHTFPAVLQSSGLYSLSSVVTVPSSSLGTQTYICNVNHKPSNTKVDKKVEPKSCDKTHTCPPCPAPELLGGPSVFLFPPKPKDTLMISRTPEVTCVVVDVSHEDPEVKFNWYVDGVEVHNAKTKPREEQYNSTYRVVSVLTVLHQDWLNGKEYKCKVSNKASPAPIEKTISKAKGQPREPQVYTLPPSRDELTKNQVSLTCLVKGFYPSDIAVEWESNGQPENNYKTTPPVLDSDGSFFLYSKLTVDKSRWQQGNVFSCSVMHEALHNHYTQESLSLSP
light: DIVMTQSPLSLPVTPGEPASISCQASESLVHSNRNTYLHWYLQKPGQSPQLLIYKVSNRFSGVPDRFSGSGSGTDFTLKISRVEAEDVGVYYCSQNTHVPPTFGQGTKVEIERTVAAPSVFIFPPSDEQLKSGTASVVCLLNNFYPREAKVQWKVDNALQSGNSQESVTEQDSKDSTYSLSSTLTLSKADYEKHKVYACEVTHQGLSSPVTKSFNRGEC
notes: also called Ho Ab L328_13S
Regarding B1, the Ho/Con_2b is 147 % of control.

B2: GpH7-B3 variant P238_06M/GpL16-k0 (antibody, human IgG1, kappa)
heavy: not shown
light: B1 light
notes: also called Ho Ab P238_06M
As for B2, the Ho/Con_2b is 97.1 % of control.

B3: GpH7-B3 variant T335_15Y/GpL16-k0 (antibody, human IgG1, kappa)
heavy: not shown
light: B1 light
notes: also called Ho Ab T335_15Y
For the molecule B3, the Ho/Con_2b is 104 % of control.

B4: GpH7-B3 variant P238_15Y/GpL16-k0 (antibody, human IgG1, kappa)
heavy: not shown
light: B1 light
notes: also called Ho Ab P238_15Y
In the case of B4, the Ho/Con_2b is 114 % of control.

B5: GpH7-B3 variant S267_19Q/GpL16-k0 (antibody, human IgG1, kappa)
heavy: not shown
light: B1 light
notes: also called Ho Ab S267_19Q
As to B5, the Ho/Con_2b is 185 % of control.

B6: GpH7-B3 variant S337_15Y/GpL16-k0 (antibody, human IgG1, kappa)
heavy: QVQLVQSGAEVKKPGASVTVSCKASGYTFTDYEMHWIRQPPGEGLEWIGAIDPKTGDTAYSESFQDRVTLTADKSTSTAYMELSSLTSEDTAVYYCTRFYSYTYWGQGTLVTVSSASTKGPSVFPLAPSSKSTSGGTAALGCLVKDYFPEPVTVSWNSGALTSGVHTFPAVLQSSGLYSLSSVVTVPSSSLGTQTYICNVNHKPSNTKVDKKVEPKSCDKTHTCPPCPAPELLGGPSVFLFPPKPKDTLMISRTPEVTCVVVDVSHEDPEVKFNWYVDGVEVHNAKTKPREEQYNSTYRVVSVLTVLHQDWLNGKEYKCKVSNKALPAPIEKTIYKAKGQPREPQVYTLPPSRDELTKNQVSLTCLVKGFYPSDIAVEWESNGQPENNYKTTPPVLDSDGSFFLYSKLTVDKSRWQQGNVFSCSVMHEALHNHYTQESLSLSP
light: B1 light
notes: also called Ho Ab S337_15Y
B6: the Ho/Con_2b was 93.4 % of control.

B7: GpH7-B3 variant S337_08L/GpL16-k0 (antibody, human IgG1, kappa)
heavy: not shown
light: B1 light
notes: also called Ho Ab S337_08L
Consider B7, for which the Ho/Con_2b was 90.7 % of control.

B8: GpH7-B3 variant P331_10E/GpL16-k0 (antibody, human IgG1, kappa)
heavy: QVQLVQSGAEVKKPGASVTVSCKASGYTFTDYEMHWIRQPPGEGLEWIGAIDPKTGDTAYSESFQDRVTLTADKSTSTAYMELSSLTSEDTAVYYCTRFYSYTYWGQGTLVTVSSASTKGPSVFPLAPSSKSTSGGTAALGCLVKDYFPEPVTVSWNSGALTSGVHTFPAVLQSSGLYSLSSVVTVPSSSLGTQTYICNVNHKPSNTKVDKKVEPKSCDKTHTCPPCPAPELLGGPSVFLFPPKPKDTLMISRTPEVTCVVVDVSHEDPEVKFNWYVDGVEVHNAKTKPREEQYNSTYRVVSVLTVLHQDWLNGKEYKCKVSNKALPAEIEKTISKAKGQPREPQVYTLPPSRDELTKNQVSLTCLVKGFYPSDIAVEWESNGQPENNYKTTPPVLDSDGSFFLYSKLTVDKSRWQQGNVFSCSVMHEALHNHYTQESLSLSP
light: B1 light
notes: also called Ho Ab P331_10E
For B8, the Ho/Con_2b is 92.3 % of control.

B9: GpH7-B3 variant N325_13S/GpL16-k0 (antibody, human IgG1, kappa)
heavy: not shown
light: B1 light
notes: also called Ho Ab N325_13S
As to B9, the Ho/Con_2b was 159 % of control.

B10: GpH7-B3 variant P331_03V/GpL16-k0 (antibody, human IgG1, kappa)
heavy: not shown
light: B1 light
notes: also called Ho Ab P331_03V
Turning to B10, the Ho/Con_2b is 86.6 % of control.

B11: GpH7-B3 variant P238_10E/GpL16-k0 (antibody, human IgG1, kappa)
heavy: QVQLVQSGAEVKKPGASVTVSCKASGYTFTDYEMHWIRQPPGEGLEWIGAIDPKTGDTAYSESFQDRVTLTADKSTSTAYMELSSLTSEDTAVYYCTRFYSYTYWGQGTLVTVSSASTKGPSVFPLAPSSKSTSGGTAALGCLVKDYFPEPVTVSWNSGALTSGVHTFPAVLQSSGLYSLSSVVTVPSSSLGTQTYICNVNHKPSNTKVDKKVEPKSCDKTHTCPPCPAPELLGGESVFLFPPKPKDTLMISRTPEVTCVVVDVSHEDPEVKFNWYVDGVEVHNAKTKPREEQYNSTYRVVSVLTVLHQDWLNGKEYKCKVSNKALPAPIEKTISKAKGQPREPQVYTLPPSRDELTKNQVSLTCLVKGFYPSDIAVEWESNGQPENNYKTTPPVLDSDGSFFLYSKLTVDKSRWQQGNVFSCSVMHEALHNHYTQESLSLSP
light: B1 light
notes: also called Ho Ab P238_10E
Take B11: the Ho/Con_2b was 97.9 % of control.

B12: GpH7-B3 variant P238_04F/GpL16-k0 (antibody, human IgG1, kappa)
heavy: not shown
light: B1 light
notes: also called Ho Ab P238_04F
On to B12, for which the Ho/Con_2b is 209 % of control.

B13: GpH7-B3 variant S337_16H/GpL16-k0 (antibody, human IgG1, kappa)
heavy: not shown
light: B1 light
notes: also called Ho Ab S337_16H
Turning to B13, the Ho/Con_2b was 103 % of control.

B14: GpH7-B3 variant N325_03V/GpL16-k0 (antibody, human IgG1, kappa)
heavy: not shown
light: B1 light
notes: also called Ho Ab N325_03V
On to B14, for which the Ho/Con_2b is 31.8 % of control.

B15: GpH7-B3 variant T335_10E/GpL16-k0 (antibody, human IgG1, kappa)
heavy: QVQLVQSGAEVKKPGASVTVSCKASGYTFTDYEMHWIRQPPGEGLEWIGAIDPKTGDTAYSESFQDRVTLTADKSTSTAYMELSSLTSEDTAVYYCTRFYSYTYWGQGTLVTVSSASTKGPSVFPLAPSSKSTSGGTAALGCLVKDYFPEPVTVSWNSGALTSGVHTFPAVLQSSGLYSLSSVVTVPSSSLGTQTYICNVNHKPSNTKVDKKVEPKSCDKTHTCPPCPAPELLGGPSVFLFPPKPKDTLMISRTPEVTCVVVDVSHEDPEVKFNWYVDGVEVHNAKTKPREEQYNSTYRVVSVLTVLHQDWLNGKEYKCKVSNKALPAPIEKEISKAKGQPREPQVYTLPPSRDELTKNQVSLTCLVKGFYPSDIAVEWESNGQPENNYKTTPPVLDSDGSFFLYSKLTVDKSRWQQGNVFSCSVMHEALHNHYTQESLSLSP
light: B1 light
notes: also called Ho Ab T335_10E
On to B15, for which the Ho/Con_2b was 108 % of control.

B16: GpH7-B3 variant N325_07I/GpL16-k0 (antibody, human IgG1, kappa)
heavy: not shown
light: B1 light
notes: also called Ho Ab N325_07I
Turning to B16, the Ho/Con_2b was 88.2 % of control.

B17: GpH7-B3 variant P271_10E/GpL16-k0 (antibody, human IgG1, kappa)
heavy: not shown
light: B1 light
notes: also called Ho Ab P271_10E
For B17, the Ho/Con_2b was 95 % of control.

B18: GpH7-B3 variant P238_16H/GpL16-k0 (antibody, human IgG1, kappa)
heavy: not shown
light: B1 light
notes: also called Ho Ab P238_16H
Take B18: the Ho/Con_2b is 18.8 % of control.

B19: GpH7-B3 variant P331_15Y/GpL16-k0 (antibody, human IgG1, kappa)
heavy: not shown
light: B1 light
notes: also called Ho Ab P331_15Y
Consider B19, for which the Ho/Con_2b is 111 % of control.

B20: GpH7-B3 variant T335_20W/GpL16-k0 (antibody, human IgG1, kappa)
heavy: not shown
light: B1 light
notes: also called Ho Ab T335_20W
As for B20, the Ho/Con_2b was 94.4 % of control.

B21: GpH7-B3 variant T335_18N/GpL16-k0 (antibody, human IgG1, kappa)
heavy: not shown
light: B1 light
notes: also called Ho Ab T335_18N
As for B21, the Ho/Con_2b is 96.1 % of control.

B22: GpH7-B3 variant S337_18N/GpL16-k0 (antibody, human IgG1, kappa)
heavy: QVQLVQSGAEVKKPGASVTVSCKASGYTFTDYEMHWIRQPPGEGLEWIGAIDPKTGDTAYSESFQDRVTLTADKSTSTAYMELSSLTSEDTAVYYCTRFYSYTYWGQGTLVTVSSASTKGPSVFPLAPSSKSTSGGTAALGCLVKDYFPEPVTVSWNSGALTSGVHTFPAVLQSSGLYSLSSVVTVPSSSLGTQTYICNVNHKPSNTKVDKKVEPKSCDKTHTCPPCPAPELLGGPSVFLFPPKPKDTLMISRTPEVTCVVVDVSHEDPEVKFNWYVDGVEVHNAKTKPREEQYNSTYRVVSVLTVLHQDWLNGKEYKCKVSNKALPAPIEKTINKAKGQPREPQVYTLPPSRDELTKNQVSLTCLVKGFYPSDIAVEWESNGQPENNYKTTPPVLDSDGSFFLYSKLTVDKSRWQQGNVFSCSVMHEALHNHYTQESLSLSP
light: B1 light
notes: also called Ho Ab S337_18N
Regarding B22, the Ho/Con_2b is 98 % of control.

B23: GpH7-B3 variant S239_10E/GpL16-k0 (antibody, human IgG1, kappa)
heavy: not shown
light: B1 light
notes: also called Ho Ab S239_10E
Take B23: the Ho/Con_2b was 175 % of control.

B24: GpH7-B3 variant S239_05P/GpL16-k0 (antibody, human IgG1, kappa)
heavy: not shown
light: B1 light
notes: also called Ho Ab S239_05P
As to B24, the Ho/Con_2b was 61 % of control.

B25: GpH7-B3 variant P238_20W/GpL16-k0 (antibody, human IgG1, kappa)
heavy: not shown
light: B1 light
notes: also called Ho Ab P238_20W
For the molecule B25, the Ho/Con_2b is 12.6 % of control.

B26: GpH7-B3 variant S324_06M/GpL16-k0 (antibody, human IgG1, kappa)
heavy: not shown
light: B1 light
notes: also called Ho Ab S324_06M
With B26, the Ho/Con_2b is 104 % of control.

B27: GpH7-B3 variant S267_01G/GpL16-k0 (antibody, human IgG1, kappa)
heavy: not shown
light: B1 light
notes: also called Ho Ab S267_01G
For the molecule B27, the Ho/Con_2b was 97 % of control.

B28: GpH7-B3 variant P271_09D/GpL16-k0 (antibody, human IgG1, kappa)
heavy: not shown
light: B1 light
notes: also called Ho Ab P271_09D
Consider B28, for which the Ho/Con_2b was 100 % of control.

B29: GpH7-B3 variant N325_01G/GpL16-k0 (antibody, human IgG1, kappa)
heavy: not shown
light: B1 light
notes: also called Ho Ab N325_01G
For the molecule B29, the Ho/Con_2b is 20.2 % of control.

B30: GpH7-B3 variant P331_16H/GpL16-k0 (antibody, human IgG1, kappa)
heavy: not shown
light: B1 light
notes: also called Ho Ab P331_16H
B30: the Ho/Con_2b is 100 % of control.

B31: GpH7-B3 variant P331_07I/GpL16-k0 (antibody, human IgG1, kappa)
heavy: not shown
light: B1 light
notes: also called Ho Ab P331_07I
For the molecule B31, the Ho/Con_2b was 63.3 % of control.

B32: GpH7-B3 variant T335_16H/GpL16-k0 (antibody, human IgG1, kappa)
heavy: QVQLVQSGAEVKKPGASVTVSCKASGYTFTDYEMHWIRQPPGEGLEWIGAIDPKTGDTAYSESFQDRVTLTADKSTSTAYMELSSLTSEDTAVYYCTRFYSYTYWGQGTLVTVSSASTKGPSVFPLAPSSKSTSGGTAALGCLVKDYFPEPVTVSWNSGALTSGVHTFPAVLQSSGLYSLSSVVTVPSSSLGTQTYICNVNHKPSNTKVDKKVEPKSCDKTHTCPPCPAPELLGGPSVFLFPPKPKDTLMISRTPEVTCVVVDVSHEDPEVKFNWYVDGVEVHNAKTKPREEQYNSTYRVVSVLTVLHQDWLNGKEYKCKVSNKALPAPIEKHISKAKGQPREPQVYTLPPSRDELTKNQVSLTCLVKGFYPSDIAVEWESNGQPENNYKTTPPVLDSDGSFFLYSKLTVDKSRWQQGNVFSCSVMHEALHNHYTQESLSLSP
light: B1 light
notes: also called Ho Ab T335_16H
Consider B32, for which the Ho/Con_2b is 97.2 % of control.

B33: GpH7-B3 variant P331_20W/GpL16-k0 (antibody, human IgG1, kappa)
heavy: not shown
light: B1 light
notes: also called Ho Ab P331_20W
For B33, the Ho/Con_2b was 111 % of control.

B34: GpH7-B3 variant P238_19Q/GpL16-k0 (antibody, human IgG1, kappa)
heavy: not shown
light: B1 light
notes: also called Ho Ab P238_19Q
As to B34, the Ho/Con_2b was 42.7 % of control.

B35: GpH7-B3 variant T335_19Q/GpL16-k0 (antibody, human IgG1, kappa)
heavy: not shown
light: B1 light
notes: also called Ho Ab T335_19Q
On to B35, for which the Ho/Con_2b is 97.3 % of control.

B36: GpH7-B3 variant N325_06M/GpL16-k0 (antibody, human IgG1, kappa)
heavy: not shown
light: B1 light
notes: also called Ho Ab N325_06M
Take B36: the Ho/Con_2b is 159 % of control.

B37: GpH7-B3 variant S337_07I/GpL16-k0 (antibody, human IgG1, kappa)
heavy: not shown
light: B1 light
notes: also called Ho Ab S337_07I
For the molecule B37, the Ho/Con_2b is 96.6 % of control.

B38: GpH7-B3 variant S239_06M/GpL16-k0 (antibody, human IgG1, kappa)
heavy: not shown
light: B1 light
notes: also called Ho Ab S239_06M
Turning to B38, the Ho/Con_2b is 84.3 % of control.

B39: GpH7-B3 variant P331_06M/GpL16-k0 (antibody, human IgG1, kappa)
heavy: not shown
light: B1 light
notes: also called Ho Ab P331_06M
As to B39, the Ho/Con_2b was 71.5 % of control.

B40: GpH7-B3 variant S267_06M/GpL16-k0 (antibody, human IgG1, kappa)
heavy: not shown
light: B1 light
notes: also called Ho Ab S267_06M
In the case of B40, the Ho/Con_2b is 187 % of control.

B41: GpH7-B3 variant T335_13S/GpL16-k0 (antibody, human IgG1, kappa)
heavy: not shown
light: B1 light
notes: also called Ho Ab T335_13S
Consider B41, for which the Ho/Con_2b was 95.2 % of control.

B42: GpH7-B3 variant V266_06M/GpL16-k0 (antibody, human IgG1, kappa)
heavy: not shown
light: B1 light
notes: also called Ho Ab V266_06M
Regarding B42, the Ho/Con_2b is 231 % of control.

B43: GpH7-B3 variant T335_07I/GpL16-k0 (antibody, human IgG1, kappa)
heavy: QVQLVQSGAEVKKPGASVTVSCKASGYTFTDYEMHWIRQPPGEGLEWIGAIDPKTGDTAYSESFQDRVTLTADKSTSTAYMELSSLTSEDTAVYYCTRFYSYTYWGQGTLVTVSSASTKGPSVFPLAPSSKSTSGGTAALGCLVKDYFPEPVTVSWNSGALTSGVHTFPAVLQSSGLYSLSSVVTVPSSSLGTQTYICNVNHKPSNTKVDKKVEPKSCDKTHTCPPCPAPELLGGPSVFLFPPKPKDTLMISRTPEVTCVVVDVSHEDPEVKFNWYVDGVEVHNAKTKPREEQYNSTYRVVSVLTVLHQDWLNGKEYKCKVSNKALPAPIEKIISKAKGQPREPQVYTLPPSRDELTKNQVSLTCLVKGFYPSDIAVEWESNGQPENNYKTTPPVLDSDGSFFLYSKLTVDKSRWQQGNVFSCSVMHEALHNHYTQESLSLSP
light: B1 light
notes: also called Ho Ab T335_07I
Turning to B43, the Ho/Con_2b is 104 % of control.

B44: GpH7-B3 variant N325_09D/GpL16-k0 (antibody, human IgG1, kappa)
heavy: not shown
light: B1 light
notes: also called Ho Ab N325_09D
In the case of B44, the Ho/Con_2b is 77 % of control.

B45: GpH7-B3 variant P238_09D/GpL16-k0 (antibody, human IgG1, kappa)
heavy: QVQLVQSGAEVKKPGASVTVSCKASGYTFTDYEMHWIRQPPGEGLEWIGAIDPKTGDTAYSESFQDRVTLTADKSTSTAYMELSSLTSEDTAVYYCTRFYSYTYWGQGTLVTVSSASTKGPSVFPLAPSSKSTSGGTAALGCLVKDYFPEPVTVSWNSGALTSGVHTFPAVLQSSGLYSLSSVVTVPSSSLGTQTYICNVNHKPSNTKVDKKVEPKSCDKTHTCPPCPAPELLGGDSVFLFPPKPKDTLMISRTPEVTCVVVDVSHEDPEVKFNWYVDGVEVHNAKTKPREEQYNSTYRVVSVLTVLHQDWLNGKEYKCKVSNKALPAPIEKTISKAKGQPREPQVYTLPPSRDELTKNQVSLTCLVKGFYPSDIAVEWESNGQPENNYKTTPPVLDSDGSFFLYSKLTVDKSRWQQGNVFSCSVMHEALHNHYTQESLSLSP
light: B1 light
notes: also called Ho Ab P238_09D
With B45, the Ho/Con_2b is 207 % of control.

B46: GpH7-B3 variant S337_20W/GpL16-k0 (antibody, human IgG1, kappa)
heavy: not shown
light: B1 light
notes: also called Ho Ab S337_20W
Regarding B46, the Ho/Con_2b is 99.6 % of control.

B47: GpH7-B3 variant N325_20W/GpL16-k0 (antibody, human IgG1, kappa)
heavy: not shown
light: B1 light
notes: also called Ho Ab N325_20W
As for B47, the Ho/Con_2b was 44 % of control.

B48: GpH7-B3 variant S239_03V/GpL16-k0 (antibody, human IgG1, kappa)
heavy: not shown
light: B1 light
notes: also called Ho Ab S239_03V
For B48, the Ho/Con_2b is 108 % of control.

B49: GpH7-B3 variant S298_06M/GpL16-k0 (antibody, human IgG1, kappa)
heavy: not shown
light: B1 light
notes: also called Ho Ab S298_06M
Take B49: the Ho/Con_2b is 101 % of control.

B50: GpH7-B3 variant N325_08L/GpL16-k0 (antibody, human IgG1, kappa)
heavy: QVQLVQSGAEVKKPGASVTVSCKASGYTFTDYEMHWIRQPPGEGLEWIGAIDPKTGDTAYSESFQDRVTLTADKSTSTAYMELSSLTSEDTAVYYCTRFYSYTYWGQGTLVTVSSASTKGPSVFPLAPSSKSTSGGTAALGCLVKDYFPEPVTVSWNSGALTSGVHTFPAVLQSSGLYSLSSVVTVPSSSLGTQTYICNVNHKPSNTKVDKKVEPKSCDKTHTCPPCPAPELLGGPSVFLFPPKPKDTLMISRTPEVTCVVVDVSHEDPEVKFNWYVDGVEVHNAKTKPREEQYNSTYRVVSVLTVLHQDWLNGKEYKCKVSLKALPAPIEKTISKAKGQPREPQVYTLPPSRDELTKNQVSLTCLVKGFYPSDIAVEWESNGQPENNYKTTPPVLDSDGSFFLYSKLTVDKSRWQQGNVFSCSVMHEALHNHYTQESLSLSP
light: B1 light
notes: also called Ho Ab N325_08L
In the case of B50, the Ho/Con_2b is 106 % of control.

B51: GpH7-B3 variant N325_04F/GpL16-k0 (antibody, human IgG1, kappa)
heavy: not shown
light: B1 light
notes: also called Ho Ab N325_04F
As for B51, the Ho/Con_2b was 65.7 % of control.

B52: GpH7-B3 variant P238_03V/GpL16-k0 (antibody, human IgG1, kappa)
heavy: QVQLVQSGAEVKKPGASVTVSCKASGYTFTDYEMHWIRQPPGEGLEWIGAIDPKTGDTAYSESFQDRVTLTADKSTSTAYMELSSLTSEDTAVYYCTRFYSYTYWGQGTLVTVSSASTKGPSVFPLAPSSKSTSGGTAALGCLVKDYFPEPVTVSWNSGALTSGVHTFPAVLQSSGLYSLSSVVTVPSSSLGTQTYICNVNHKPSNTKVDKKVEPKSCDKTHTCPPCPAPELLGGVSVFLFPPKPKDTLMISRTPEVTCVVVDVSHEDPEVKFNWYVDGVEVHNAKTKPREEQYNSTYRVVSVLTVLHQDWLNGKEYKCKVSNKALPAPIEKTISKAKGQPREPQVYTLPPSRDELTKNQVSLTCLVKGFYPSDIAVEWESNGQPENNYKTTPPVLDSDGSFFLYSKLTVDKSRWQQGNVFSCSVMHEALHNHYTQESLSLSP
light: B1 light
notes: also called Ho Ab P238_03V
Turning to B52, the Ho/Con_2b was 96.6 % of control.

Source of the values: patent US20180155451A1 (published 2018).
